The results in this text go back to paper PMC10942606 (eLife, 2023).

Positions count from the first letter of the chain named. Numbers in names are those of the source.

The chains are these.
B1: Pcf2 (medium subunit of SpCAF-1) (natural protein, S. pombe, UniProt O13985 1-512, looked up)
chain: MRAEVLQIRWHYDANDDHTPIYSVDFQKNSLNKFATCGGDSKIRIWQLITSESSTKVEYLSTLSRHTQAVNVVRFNPEGNILATAGDEGTIMLWVPTNTPITTLADDAEELALAKEYWKVKIVCRSMGSEIYDLCWSVDSNFLIAGAMDNSLRLYDAHTGQLLTQKFDHSHYVQGVCWDPLNQYIVSESSDRSICLYEIQEEKKNPKKFQLVLKSRICRIEYNVTKFELISVTKPLNNDESSGISEPIETSNNNESPVSKHEALSSTANIVKDGSLERTEPPNSLNSKISYSLYCNETLVSFFRRPAFSPDGLLLVTPAGRLRPHGQPNFEVPYTAYIYTRGSITKQPVACLNGFKKPVIAVRFSPIHYELNSFSNFSFTSVSFNLPYRMVFAVACQDAVYIYDTQTCKPFYRAVNLHYSNLTDIAWNDDGNVLLMTSIDGFCSVITFEPGELGVKSQHKISLPEKRSASPSSIDDSQDNTAGGPATTTLIPRKVESSKVSKKRIAPTPVYP
B2: Pcf1_KER-PIP (56-185) (domain or fragment, S. pombe, UniProt Q1MTN9 56-185, looked up)
chain: KLSYEGNRKKRIYNGSAEAGKEKKLQKQRAQEERIRQKEAERLKREKERQQREQEKKLREQEKIAAKKMKELEKLEKERIRLQEQQRRKEERDQKLREKEEAQRLRQEQILNKERQQLKLNNFFTKGVEK
B3: Pcf1_KER*-PIP (56-185, R147E-K150E-K154E-R161E-K168E) (domain or fragment, S. pombe, UniProt Q1MTN9 56-185, looked up)
chain: B2 chain with R92E, K95E, K99E, R106E, K113E
B4: Pcf3 (small subunit of SpCAF-1) (natural protein, S. pombe, UniProt Q9Y825 1-408, looked up)
chain: MNTELDMQNFEHIKFLENQISEDHFRWKKNSKHLYNLLITRTLTWPSLSIQWLSAMESITEKAVLKNRLLLGTHAAEGMPNFLQLADLDLPDFNQTILDPVKHYNEDTGELGGYSMQHSCKFQISQRILHNGDVNRVRHMPQNPNIIATMSSCGNAYIFDRTKYTSMPAEEFLPNISLIGHKKEGFGLSWNRQQNCRLVTAANDSKILEWDLNNFSRDTRCLTPVKDFHYDDSPVNDVEYHPHHTNLYIAVNDNGIAFICDNRLQQTCSKTVKASNPLFSVRHNPSIATLFALGSEQDLQLWDLRNLNKSVFNTSEDLSDNRLKVPSRLTLGGTSLSWSWRHSGRIVSACQEYCYVWNFNKANPLEFVHAGHKGTVNEVDFDPFEAQCIASVADDNELHIWKPNVIVN
B5: Pcf1 (large subunit of SpCAF-1) (natural protein, S. pombe, UniProt Q1MTN9 1-544, looked up)
chain: MNSESVDSDVAASTSNKGNELCSSSTDITSLSVSSPNESVIHSSHSASEADEYVCKLSYEGNRKKRIYNGSAEAGKEKKLQKQRAQEERIRQKEAERLKREKERQQREQEKKLREQEKIAAKKMKELEKLEKERIRLQEQQRRKEERDQKLREKEEAQRLRQEQILNKERQQLKLNNFFTKGVEKRIAPNENFVADKTDELNEFEKEFRPFFIKHQMSLSKYPSPNESDSFLDEVLSTSKSYPLKLNDIFTPSDAVSSANSLGVSNRNSENEVRQLMSAYQDPSVSKPQEILSCLSQIPIKFIFFYQDVRPPYFGSYTKTHSHGSNVLLNPWLEDEDIDYTYDSEAEWVADEEDDGEDLESEDEEVDNSDDIVEDGDNAFVDDEDDDKDSVNASNTHRSSGPLEVIVEGPVWDSKFLPDFNCLSLIEPISSFSASTYLQIDPKEDLWASQDTAPASSGMTIGPTSSLSDDLQVRFPSEDIPKFIEYVRNSHDNKVFLIENLRHMFPYVTKNIISETLGKVAVRKGKSVSDGWIIKENFASLLSS
B6: SpCAF-1 complex (Pcf1-Pcf2-Pcf3), wild type, full length (complex, S. pombe)
chain 1: B5 chain
chain 2: B1 chain
chain 3: B4 chain
B7: SpCAF-1-KER* complex (Pcf1 R147E-K150E-K154E-R161E-K168E, Pcf2, Pcf3) (complex, S. pombe)
chain 1: B5 chain with R147E, K150E, K154E, R161E, K168E
chain 2: B1 chain
chain 3: B4 chain
B8: SpPCNA (recombinant S. pombe PCNA) (natural protein, UniProt Q03392 1-260, looked up)
chain: MLEARFQQAALLKKLLDAIKELVTDANFDCNDNGISLQAMDSSHVALVSMLIKSDGFEPYRCDRNIALGINLNALSKVLRCAQNEDLVTLKAEDTPEVLNLVFESEKNDRISDYDVKLMDIDQEHLGIPDIEYDATITMPAAEFQRITRDLLTLSDSVTINASKEGVRFSCKGDIGNGSTTLKQHTDLSDQDQSIEISLTQAVTLTFSLKYLAQFTKATPLATRVTLSMSNDVPLLVEYKMESGFLRFYLAPKIGEEDEE
B9: Pcf1_ED (325-396) (domain or fragment, S. pombe, UniProt Q1MTN9 325-396, looked up)
chain: SNVLLNPWLEDEDIDYTYDSEAEWVADEEDDGEDLESEDEEVDNSDDIVEDGDNAFVDDEDDDKDSVNASNT
B10: PCNA (endogenous, S. pombe) (natural protein, S. pombe (endogenous in S. pombe), UniProt Q03392 1-260, looked up)
chain: B8 chain

Data set [1] addresses B5. Briefly: SEC-SAXS. (In general: SEC sorts molecules by how far they enter the pores of the column.)
The target of data set [2] is B8. Briefly: ITC. Background: ITC needs no label: the signal is the heat of the interaction.
Data set [3] deals with the molecule itself. Description: SEC.
Data set [4] deals with T1, S. pombe histones H3−H4 (S. pombe, UniProt P09988 1-136; P09322 1-103). Briefly: NMR titration.
The target in data set [5] is T1, S. pombe histones H3−H4. Briefly: SEC.
Data set [6] addresses B6. Briefly: native gel or EMSA. (In EMSA bound probe runs differently from free probe, usually more slowly.)
Data set [7] concerns the target T1, S. pombe histones H3−H4. Briefly: NMR titration. The source holds these as a separate data set.
In data set [8] the target is FLAG-Pcf1-ED* (expressed from the endogenous pcf1 gene) (S. pombe, UniProt Q1MTN9 1-544, Y340A | W348A). Briefly: co-IP.

In general, stoichiometry N refers to the number of molecules, sites or subunits per partner or assembly. Usually Kd stands for a measure of binding affinity in units of concentration.

As for B1, the “stoichiometry N” value in data set [1] is 1.

Take B2: in data set [2], the Kd was 0.7 ± 0.2 µM, the dH amounted to 2.9 ± 0.6 kCal.M^–1 and the “stoichiometry N” value amounted to 0.64 ± 0.04.

As for B3, in data set [2], the Kd was 7.1 ± 1.5 µM, the dH worked out at 1 ± 0.5 kCal.M^–1 and the “stoichiometry N” value stood at 0.7 ± 0.2.

B4: in data set [1], the “stoichiometry N” value came to 1.

Turning to B5, the binding result in data set [3] and in data set [4] was “binds” in each case.

In the case of B6, the binding result in data set [5] is reported as “binds”.

Turning to B7, the binding result in data set [4] is on record as “binds”.

As for B8, the binding result in data set [6] is “binds”.

As for B9, the binding result in data set [7] is listed as “binds”.

B10: in data set [8], the “fold change of bound PCNA against WT Pcf1” value was 8 fold of WT Pcf1.
